Measured values: IntAct's records for PubMed 12717434

B1: Multiple coagulation factor deficiency protein 2 (Homo sapiens), Q8NI22 (parent)
chain: MTMRSLLRTPFLCGLLWAFCAPGARAEEPAASFSQPGSMGLDKNTVHDQEHIMEHLEGVINKPEAEMSPQELQLHYFKMHDYDGNNLLDGLELSTAITHVHKEEGSEQAPLMSEDELINIIDGVLRDDDKNNDGYIDYAEFAKSLQ
partner: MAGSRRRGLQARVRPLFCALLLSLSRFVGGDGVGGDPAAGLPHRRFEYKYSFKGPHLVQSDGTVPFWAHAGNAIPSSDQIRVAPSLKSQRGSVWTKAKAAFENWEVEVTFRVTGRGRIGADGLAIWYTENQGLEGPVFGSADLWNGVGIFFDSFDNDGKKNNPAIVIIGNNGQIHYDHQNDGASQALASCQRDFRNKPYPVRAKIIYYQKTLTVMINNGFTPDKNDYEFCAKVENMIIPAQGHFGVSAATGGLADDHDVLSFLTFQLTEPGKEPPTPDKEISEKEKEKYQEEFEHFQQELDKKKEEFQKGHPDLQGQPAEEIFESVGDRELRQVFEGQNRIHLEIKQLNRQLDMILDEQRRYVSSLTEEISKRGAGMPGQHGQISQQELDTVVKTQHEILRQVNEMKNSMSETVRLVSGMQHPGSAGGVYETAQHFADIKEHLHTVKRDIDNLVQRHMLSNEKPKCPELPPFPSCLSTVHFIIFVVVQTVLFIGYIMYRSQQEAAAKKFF

Variants of: B1
Settings: with lman1_chlae LMAN1, Q9TU32

Row | Variant | effect of a mutation on the interaction
1 | I136V | decreasing interaction strength
2 | I136T | disrupting interaction strength
3 | D129E | disrupting interaction strength
